Bridges are numbered along the chain shown (N, C = ends). Where no end group is shown, it is not given here. [ ]: non-standard residue; d: D form.
Key:
FcεR1α (Homo sapiens) = experiment: Surface plasmon resonance (BIAcore biosensor) inhibition of IgE-Fc binding to immobilized soluble FcεR1α; settings: peptide 2.5 mM; IgE-Fc 5 nM, association monitored for 6 minutes, 24° C.
Experimental: The kinetics of binding of IgE Fc to soluble FcεR1α were determined using a BIAcore biosensor (Pharmacia Biosensor AB, Uppsala, Sweden). The FcεR1α was immobilized via primary amine groups to a carboxymethylated dextran-coated CM5 sensor chip, at a concentration of 85 μg/ml in 10mM sodium acetate buffer pH 4.5, using N-hydroxy-succinimide and N-ethyl-N'-(3-[…])-carbodiimide.Free sites were blocked with 1M ethanolamine-hydrochloride pH 8.5.
The association of IgE-Fc at a concentration of 5nM was monitored for 6 minutes in the presence and absence of a derivative of the D amino acid peptide #1 at various concentrations (at 24° C.) The derivative of D amino acid peptide #1 is identical to D amino acid #1, which is described in Example 3, except it is biotinylated.

labelled myeloma IgE = experiment: competition: peptide titrated against 5 nM iodinated myeloma IgE binding to transfected CHO cells, gamma counting

Chain of FcεR1α (Homo sapiens) (P01854 104-428 isoform P01854-1 limits assumed): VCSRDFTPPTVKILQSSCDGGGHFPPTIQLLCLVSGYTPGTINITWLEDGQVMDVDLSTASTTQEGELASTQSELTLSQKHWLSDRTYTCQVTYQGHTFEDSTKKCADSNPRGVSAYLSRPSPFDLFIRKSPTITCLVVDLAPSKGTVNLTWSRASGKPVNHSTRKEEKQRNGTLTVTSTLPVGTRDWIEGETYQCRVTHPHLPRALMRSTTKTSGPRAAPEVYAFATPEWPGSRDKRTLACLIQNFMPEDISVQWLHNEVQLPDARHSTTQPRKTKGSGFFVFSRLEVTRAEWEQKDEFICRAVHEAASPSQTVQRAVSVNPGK

Row | Molecule | inhibition of IgE-Fc binding (FcεR1α (Homo sapiens)) | IC50 (labelled myeloma IgE)
1 | derivative of D amino acid peptide #1: identical to D amino acid peptide #1, which is described in Example 3, except it is biotinylated (CIYYKDGEALKY[dC]; disulfide 1-13; also: biotinylated (site not given here)) | virtually complete inhibition | –
2 | CIYYKDGEALKY[dC] (disulfide 1-13) [D amino acid peptide #1] | – | 5.14 µM

Source: patent US5962634A, “IgE antagonists” (Thomas Jefferson University, priority 1997, dated 1999)
